Key:
[1] = tested on: AncSZ; assay: phosphorylation enrichment, bacterial display (enrichment ratio); higher = better substrate or ligand; peptides without Tyr show the background
[2] = molecular target: EPHB1 (UniProt P54762); assay: as above
[3] = molecular target: EPHB2 (UniProt P29323); assay: as above
[4] = molecular target: FGFR1 (UniProt P11362); assay: as above
[5] = molecular target: FGFR3 (UniProt P22607); assay: as above
[6] = tested on: Fer (mouse); assay: as above
[7] = molecular target: Fes (UniProt P07332); assay: as above
Chain of Fes (P07332 whole entry, looked up): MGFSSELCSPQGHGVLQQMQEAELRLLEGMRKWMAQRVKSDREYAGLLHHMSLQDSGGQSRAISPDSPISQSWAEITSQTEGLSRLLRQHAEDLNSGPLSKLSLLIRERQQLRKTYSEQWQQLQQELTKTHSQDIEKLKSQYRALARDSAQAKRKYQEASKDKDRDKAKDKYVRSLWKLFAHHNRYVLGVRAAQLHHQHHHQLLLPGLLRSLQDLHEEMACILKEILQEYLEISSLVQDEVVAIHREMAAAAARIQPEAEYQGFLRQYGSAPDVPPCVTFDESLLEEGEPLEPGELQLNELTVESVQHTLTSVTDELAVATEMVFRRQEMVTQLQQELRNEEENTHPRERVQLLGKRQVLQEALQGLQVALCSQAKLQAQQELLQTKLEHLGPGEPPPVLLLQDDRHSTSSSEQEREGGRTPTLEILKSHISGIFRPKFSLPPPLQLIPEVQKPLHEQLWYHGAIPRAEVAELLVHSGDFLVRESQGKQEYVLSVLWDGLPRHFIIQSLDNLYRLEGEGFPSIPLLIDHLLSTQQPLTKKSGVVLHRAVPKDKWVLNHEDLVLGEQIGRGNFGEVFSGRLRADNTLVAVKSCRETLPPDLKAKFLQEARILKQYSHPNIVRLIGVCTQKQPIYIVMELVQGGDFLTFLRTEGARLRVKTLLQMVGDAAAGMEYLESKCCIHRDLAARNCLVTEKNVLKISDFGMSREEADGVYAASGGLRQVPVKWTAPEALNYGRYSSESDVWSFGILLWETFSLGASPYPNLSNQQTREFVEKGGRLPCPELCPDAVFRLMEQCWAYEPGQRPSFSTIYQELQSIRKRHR

[8] = molecular target: Fyn (UniProt P06241); assay: as above
Chain of Fyn (P06241 whole entry, looked up): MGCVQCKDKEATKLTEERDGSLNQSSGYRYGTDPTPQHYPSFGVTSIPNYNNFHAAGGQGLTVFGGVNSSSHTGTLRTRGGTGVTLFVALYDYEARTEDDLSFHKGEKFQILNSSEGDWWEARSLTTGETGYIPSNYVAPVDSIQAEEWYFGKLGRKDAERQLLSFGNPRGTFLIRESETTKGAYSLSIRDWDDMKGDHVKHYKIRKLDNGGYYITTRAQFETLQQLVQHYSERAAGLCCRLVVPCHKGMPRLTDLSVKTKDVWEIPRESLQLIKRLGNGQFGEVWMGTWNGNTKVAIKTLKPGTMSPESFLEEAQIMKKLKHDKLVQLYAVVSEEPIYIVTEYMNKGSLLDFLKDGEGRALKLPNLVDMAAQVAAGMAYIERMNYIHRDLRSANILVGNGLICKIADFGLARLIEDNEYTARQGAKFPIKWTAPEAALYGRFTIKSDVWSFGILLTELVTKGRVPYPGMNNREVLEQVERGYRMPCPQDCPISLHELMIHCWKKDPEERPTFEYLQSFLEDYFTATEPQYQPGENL

[9] = molecular target: Hck (UniProt P08631); assay: as above
Chain of Hck (P08631 whole entry, looked up): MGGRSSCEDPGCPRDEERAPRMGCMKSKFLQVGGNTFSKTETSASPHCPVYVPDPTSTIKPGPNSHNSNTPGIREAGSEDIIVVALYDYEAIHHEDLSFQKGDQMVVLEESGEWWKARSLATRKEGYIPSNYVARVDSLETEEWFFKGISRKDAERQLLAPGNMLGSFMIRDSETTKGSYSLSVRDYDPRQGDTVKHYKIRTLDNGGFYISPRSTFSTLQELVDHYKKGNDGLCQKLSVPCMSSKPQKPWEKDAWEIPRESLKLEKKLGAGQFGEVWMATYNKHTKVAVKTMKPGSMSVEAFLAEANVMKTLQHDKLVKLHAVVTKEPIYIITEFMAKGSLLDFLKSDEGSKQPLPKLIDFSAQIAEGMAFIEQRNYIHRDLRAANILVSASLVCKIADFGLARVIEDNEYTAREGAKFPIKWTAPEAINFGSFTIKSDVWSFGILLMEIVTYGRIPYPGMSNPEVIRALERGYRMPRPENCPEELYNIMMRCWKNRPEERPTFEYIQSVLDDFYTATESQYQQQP

[10] = molecular target: Jak2 (UniProt O60674); assay: as above
[11] = molecular target: MERTK (UniProt Q12866); assay: as above
Chain of MERTK (Q12866 whole entry, looked up): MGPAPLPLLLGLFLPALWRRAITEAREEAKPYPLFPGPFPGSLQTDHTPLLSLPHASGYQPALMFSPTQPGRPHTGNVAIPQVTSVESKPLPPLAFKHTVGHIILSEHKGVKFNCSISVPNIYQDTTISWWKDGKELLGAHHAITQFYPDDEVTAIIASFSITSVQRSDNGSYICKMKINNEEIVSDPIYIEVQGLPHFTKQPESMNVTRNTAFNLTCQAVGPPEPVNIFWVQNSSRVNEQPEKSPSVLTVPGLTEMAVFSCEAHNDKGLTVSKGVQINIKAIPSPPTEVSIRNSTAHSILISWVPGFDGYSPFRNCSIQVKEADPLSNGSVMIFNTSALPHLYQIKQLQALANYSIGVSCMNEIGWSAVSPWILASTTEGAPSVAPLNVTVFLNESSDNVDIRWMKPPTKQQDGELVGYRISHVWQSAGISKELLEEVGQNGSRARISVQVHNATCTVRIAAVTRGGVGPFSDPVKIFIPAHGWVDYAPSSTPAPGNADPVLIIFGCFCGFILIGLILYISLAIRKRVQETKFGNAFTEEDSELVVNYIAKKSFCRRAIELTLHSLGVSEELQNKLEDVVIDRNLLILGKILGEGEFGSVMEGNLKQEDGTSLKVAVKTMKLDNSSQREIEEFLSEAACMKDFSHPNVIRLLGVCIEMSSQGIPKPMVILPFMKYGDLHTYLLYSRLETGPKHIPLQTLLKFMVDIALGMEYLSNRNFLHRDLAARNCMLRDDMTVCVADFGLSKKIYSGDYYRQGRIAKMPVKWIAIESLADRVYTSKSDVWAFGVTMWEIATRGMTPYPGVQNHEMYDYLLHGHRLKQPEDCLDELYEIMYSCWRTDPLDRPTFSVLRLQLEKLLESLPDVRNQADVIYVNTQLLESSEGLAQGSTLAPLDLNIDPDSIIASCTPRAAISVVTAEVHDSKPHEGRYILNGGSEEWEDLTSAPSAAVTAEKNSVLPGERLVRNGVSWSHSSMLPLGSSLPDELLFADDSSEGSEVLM

[12] = tested on: c-Abl (mouse); assay: as above
[13] = tested on: c-Src; assay: as above
[14] = molecular target: Grb2 SH2 (UniProt P62993); assay: SH2 binding enrichment of the phosphorylated peptide, bacterial display (enrichment ratio); higher = better substrate or ligand; peptides without Tyr show the background
Chain of Grb2 SH2 (P62993 whole entry, looked up): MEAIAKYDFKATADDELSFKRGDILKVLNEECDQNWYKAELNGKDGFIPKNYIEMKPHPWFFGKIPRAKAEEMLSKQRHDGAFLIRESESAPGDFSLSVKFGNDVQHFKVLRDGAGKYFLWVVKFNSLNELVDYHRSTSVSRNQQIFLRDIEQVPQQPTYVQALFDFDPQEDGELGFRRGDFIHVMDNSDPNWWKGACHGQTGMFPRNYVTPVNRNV

[15] = molecular target: SHP2-C SH2; assay: as above
[16] = molecular target: c-Src SH2; assay: as above
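Throughout, for SH2 binding enrichment of the phosphorylated peptide, bacterial display: peptide library displayed on the E. coli surface as eCPX fusions, selected cells deep-sequenced, score is each peptide's frequency after selection divided by its frequency in the input.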
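Throughout, for phosphorylation enrichment, bacterial display: 11-residue human phosphosite peptides and single-mutation variants displayed on the E. coli surface, counted by deep sequencing, each peptide's frequency after selection divided by its frequency in the unselected input library; frequency after pTyr selection over input frequency; kinase dosed for 20-30% of maximal phosphorylation in three min.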

Chain of FGFR3 (P22607 whole entry, looked up): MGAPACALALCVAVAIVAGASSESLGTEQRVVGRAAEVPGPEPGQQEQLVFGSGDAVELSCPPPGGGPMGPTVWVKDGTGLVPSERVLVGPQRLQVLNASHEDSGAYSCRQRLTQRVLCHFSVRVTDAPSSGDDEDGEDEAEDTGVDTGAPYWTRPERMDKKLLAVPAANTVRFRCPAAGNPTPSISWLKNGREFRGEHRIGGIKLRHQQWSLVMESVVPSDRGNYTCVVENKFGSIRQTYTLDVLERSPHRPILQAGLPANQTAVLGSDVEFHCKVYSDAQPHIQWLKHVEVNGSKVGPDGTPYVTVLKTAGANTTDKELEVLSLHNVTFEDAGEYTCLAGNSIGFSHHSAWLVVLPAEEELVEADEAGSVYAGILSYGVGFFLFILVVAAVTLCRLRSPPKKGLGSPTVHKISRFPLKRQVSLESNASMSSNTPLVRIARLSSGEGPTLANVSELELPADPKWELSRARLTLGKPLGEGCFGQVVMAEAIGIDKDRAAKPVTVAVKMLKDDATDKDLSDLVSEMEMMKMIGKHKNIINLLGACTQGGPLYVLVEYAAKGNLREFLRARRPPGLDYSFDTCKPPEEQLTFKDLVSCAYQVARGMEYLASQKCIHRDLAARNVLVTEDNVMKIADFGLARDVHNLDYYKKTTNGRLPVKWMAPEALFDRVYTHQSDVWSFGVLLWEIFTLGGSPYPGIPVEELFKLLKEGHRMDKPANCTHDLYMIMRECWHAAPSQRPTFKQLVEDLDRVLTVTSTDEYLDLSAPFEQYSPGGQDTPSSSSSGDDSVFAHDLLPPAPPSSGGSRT
Chain of FGFR1 (P11362 whole entry, looked up): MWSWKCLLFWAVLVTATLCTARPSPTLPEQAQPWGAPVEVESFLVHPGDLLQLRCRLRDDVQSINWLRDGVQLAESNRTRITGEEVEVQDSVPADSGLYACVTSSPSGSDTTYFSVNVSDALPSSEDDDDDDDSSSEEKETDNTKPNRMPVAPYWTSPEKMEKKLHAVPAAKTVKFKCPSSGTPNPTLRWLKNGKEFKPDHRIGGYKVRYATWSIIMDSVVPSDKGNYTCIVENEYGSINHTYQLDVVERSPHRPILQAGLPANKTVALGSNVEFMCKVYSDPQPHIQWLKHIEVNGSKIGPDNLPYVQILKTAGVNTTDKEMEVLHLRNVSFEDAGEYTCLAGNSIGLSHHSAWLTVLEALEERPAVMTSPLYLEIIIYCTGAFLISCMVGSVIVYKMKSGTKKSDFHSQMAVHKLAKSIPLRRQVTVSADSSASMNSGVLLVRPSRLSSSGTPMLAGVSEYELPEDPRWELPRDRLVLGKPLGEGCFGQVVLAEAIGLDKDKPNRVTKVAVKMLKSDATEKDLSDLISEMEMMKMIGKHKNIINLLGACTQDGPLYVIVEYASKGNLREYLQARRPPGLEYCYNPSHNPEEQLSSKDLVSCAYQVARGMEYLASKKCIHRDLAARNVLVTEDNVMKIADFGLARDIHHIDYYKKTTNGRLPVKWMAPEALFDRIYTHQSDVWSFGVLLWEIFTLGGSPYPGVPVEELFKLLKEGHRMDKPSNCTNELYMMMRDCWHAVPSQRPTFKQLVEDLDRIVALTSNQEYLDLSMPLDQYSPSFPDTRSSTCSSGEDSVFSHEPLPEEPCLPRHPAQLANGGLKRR

Sequence	phosphorylation enrichment [1]	phosphorylation enrichment [2]	phosphorylation enrichment [3]	phosphorylation enrichment [4]	phosphorylation enrichment [5]	phosphorylation enrichment [6]	phosphorylation enrichment [7]	phosphorylation enrichment [8]	phosphorylation enrichment [9]	phosphorylation enrichment [10]	phosphorylation enrichment [11]	phosphorylation enrichment [12]	phosphorylation enrichment [13]	SH2 binding enrichment [14]	SH2 binding enrichment [15]	SH2 binding enrichment [16]
EKLQQYLAPGM [EPHB3_Y600_I601L]	0.68	0.408	0.489	0.466	0.493	0.54	0.863	0.398	0.48	0.57	0.487	0.732	0.347	0.745	0.559	0.564
EKQARYEIVVE [CDH5_Y223]	0.909	0.65	0.57	0.392	0.532	0.466	0.852	0.433	0.486	0.846	0.484	0.613	0.477	0.856	0.666	11
EKSREYDRLYE [PIK3R1_Y463]	1.32	0.663	0.68	0.61	0.706	0.711	1.09	0.708	0.944	0.828	0.597	0.938	0.587	0.966	0.612	16.9
ELPEKYSQNIF [PKP2_Y626_YF]	0.989	0.528	0.492	0.579	0.659	0.423	1.05	0.413	0.507	1.09	0.538	0.605	0.539	0.864	0.711	0.614
ELTSKYRGGGG [HBA1_Y141_V136E]	0.515	0.412	0.385	0.333	0.411	0.313	0.573	0.353	0.422	0.678	0.503	0.471	0.434	0.939	0.725	0.469
EMFNPYYGLFE [NEDD4L_Y679]	2.04	5.74	5.92	5.41	4.84	6.32	1.64	8.62	7.91	6.66	6.86	2.2	6.95	1.17	0.855	1.06
EMTAEYACTRK [ACAD9_Y325]	0.703	0.406	0.492	0.397	0.551	0.497	0.706	0.434	0.627	0.499	0.457	0.603	0.412	1.22	1.03	0.692
ENFDDYMKEVG [FABP4_Y20]	1.23	0.579	0.623	0.569	0.699	0.687	1.22	0.496	0.527	1.06	0.396	0.707	0.539	1.04	0.791	0.802
ENFSEYQEIAV [HEMGN_Y150]	1.51	2.29	1.24	1.59	1.38	1.4	1.24	0.586	0.984	1.28	0.507	0.957	0.616	0.98	0.663	0.627
ENFSEYQEISV [HEMGN_Y150_A154S]	1.59	2.45	1.46	1.89	1.53	1.42	1.39	0.594	0.987	1.14	0.659	0.965	0.873	0.827	0.749	0.617
EPYKVYRIVPE [IRF8_Y110]	0.746	0.474	0.54	0.521	0.612	0.447	0.728	0.641	0.574	0.658	0.462	0.473	0.605	0.762	0.646	0.598
EQLQSYQAEII [KRT33A_Y268]	1.12	0.524	0.571	0.54	0.821	0.526	1.16	0.516	0.518	1.15	0.45	0.988	0.555	0.708	0.683	0.472
EQQNMYRLKVL [ABCC6_Y372]	0.861	0.56	0.5	0.521	0.545	0.488	0.706	0.41	0.475	0.561	0.401	0.619	0.452	0.79	0.566	0.499
ERDYTYDELLN [EIF2S2_Y176_E177D]	1.17	0.742	0.682	0.558	0.791	0.506	1.27	0.631	1.04	1.21	0.498	0.887	0.661	0.786	0.688	1.83
ESAAIYNPVIF [RHO_Y301_K296E_YF]	1.03	0.452	0.579	0.673	0.675	17.2	1.25	8.03	9.56	0.707	4.16	1.28	6.99	0.848	0.678	0.493
ESSKAYERALS [TTC37_Y1074]	0.77	0.413	0.624	0.423	0.476	0.418	0.816	0.412	0.444	0.594	0.417	0.618	0.409	0.787	0.571	0.468
ETKEDYEKILV [ANXA1_Y335_G333E]	1.09	0.616	0.598	0.509	0.743	0.598	1.23	0.501	0.572	1.01	0.53	0.779	0.484	0.972	0.905	0.594
ETKKQYNSFTF [TMED3_Y85_D86N_YF]	0.64	0.442	0.475	0.366	0.454	0.513	0.711	0.432	0.417	0.719	0.396	0.561	0.399	0.65	0.636	0.411
ETKTPYTVILI [SBDS_Y128_R126T]	0.999	0.543	0.637	0.592	0.794	1.06	1.22	0.483	0.569	0.961	0.534	0.651	0.485	0.671	2.27	0.54
EVASVYESYQP [MAVS_Y92_Q93E]	1.83	0.948	1.61	0.527	0.737	10.1	1.11	8.41	6.67	0.849	0.71	0.783	5.67	0.919	0.504	0.727
EVEPRYVVLFD [ERCC4_Y577_YF]	1.18	3.47	3.06	0.999	0.973	0.568	1.04	0.547	0.505	1.11	4.21	0.777	0.667	0.802	1.33	3.48
EVEPRYVVLYD [ERCC4_Y577]	1.22	3.5	3.44	1.36	0.986	0.547	1.13	0.664	0.646	1.07	5.22	0.91	0.683	0.894	1.84	8.72
EVLKNYNQQKD [GOLGA4_Y1551]	0.949	0.504	0.505	0.565	0.702	0.552	1.07	0.443	0.452	0.969	0.439	0.717	0.388	0.608	0.669	0.32
EVVGGYSVHNA [MLH1_Y183_R182G]	0.528	0.306	0.314	0.339	0.599	0.372	0.729	0.324	0.44	0.504	0.369	0.643	0.336	0.951	0.537	0.437
EWCSPYGLTPR [GRIN3B_Y601_R598C]	0.815	0.556	0.569	0.474	0.613	1.2	1.02	1.76	1.04	0.778	1.01	0.734	3.91	0.644	0.629	0.535
EYKDAYTFAAD [BRDT_Y335_K336T]	1.15	0.553	0.595	0.511	0.74	0.555	1.09	0.833	0.548	1.11	0.51	0.556	1.29	0.876	0.727	0.61
FADIAYNYRHR [PAH_Y166_G171R]	0.624	0.391	0.44	0.427	0.435	0.436	0.687	0.27	0.341	0.533	0.398	0.511	0.429	0.866	0.773	0.542
FADIAYSYRHG [PAH_Y166_N167S]	0.726	0.423	0.418	0.562	0.508	0.453	0.658	0.512	0.568	0.727	0.46	0.63	0.714	0.822	0.784	0.496
FAFQLYDLDPD [CHP2_Y123_R127P_YF]	1.26	0.981	0.698	0.568	0.907	0.62	1.26	2.84	1.8	1.25	0.571	1.05	3.52	1.02	0.999	0.982
